Biological target: FlAsH-labeled TC-apo-sGCβ (rat sGCβ(1–385) with a TC motif) (rat, UniProt P20595 1-385, TC motif (CCPGCC) inserted at residue 239 to 244, FlAsH dye bound to the tetra-Cys (TC) motif; heme-free (apo))
Assay: cell-based or functional assay

Sequence of FlAsH-labeled TC-apo-sGCβ (rat sGCβ(1–385) with a TC motif) (P20595 other isoform, or with tags, fused parts or gaps TC motif (CCPGCC) inserted at residue 239 to 244): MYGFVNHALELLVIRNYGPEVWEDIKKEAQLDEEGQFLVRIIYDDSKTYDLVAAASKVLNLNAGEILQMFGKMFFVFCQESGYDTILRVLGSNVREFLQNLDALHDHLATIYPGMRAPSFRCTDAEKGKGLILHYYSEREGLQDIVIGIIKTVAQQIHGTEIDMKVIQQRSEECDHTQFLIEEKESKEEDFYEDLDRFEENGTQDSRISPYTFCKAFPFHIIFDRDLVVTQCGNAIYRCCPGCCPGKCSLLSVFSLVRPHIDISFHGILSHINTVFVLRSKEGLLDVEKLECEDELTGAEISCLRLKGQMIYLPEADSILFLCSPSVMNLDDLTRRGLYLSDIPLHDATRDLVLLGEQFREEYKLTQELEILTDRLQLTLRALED

heme transfer (FlAsH fluorescence kinetics) from the GAPDH–heme complex to a preformed complex of GAPDH bound on FlAsH-TC-apo-sGCβ, against FlAsH-TC-apo-sGCβ alone (Fig. S4): 5 fold slower
B1: glyceraldehyde 3-phosphate dehydrogenase (GAPDH), human (enzyme)
chain: not shown
